Test results taken from patent US20150218594A1, “CELL-FREE AND MINIMIZED METABOLIC REACTION CASCADES FOR THE PRODUCTION OF CHEMICALS” (CLARIANT PRODUKTE (DEUTSCHLAND) GMBH, priority 2012, published 2015).
Read-outs that look alike come from different tables or passages of the source.

Key:
[1] = Ethanol tolerance of enzymes (E50); type: biochemical
[2] = Isobutanol tolerance of enzymes (I50); type: biochemical
[3] = PDC activity for natural substrate; type: biochemical
Text: (§1) (J. Mol. Catal. B-Enzym. 2009, 61, 30-35).

[4] = Enzyme half-life at 50° C.
Thermal tolerance of PDC = type: physicochemical
[5] = Enzyme temperature optimum; type: biochemical
[6] = ADH activity, NADH-dependent reduction of isobutyraldehyde; type: biochemical; conditions: substrate isobutyraldehyde
Text: as §1

[7] = cited from earlier work
[8] = ADH activity with acetaldehyde as substrate; type: biochemical
Text: as §1

[9] = GDH activity assay (oxidation of D-glucose to gluconate, NAD reduction); type: biochemical; conditions: natural substrate
Protocol: as §1
GDH activity: GDH activity was assayed at 50° C. by oxidizing D-glucose to gluconate, whereby the coenzyme NAD is reduced to NADH. Assay mixture contained 50 mM HEPES (pH 7), 2 mM NAD and 50 mM D-glucose. (J. Biol. Chem. 2006, 281, 14796-14804)

[10] = Screening of TaALDH variants, relative activity under standard conditions (2 mM NAD); type: biochemical
Protocol: (§2) Colonies of E. coli BL21 (DE3) containing Ta-ALDH library were transferred into 96-deepwell plates (Gainer BioOne) containing Zym5052 autoinduction medium (Protein Expression and Purification, 2005. 41(1): p. 207-234). Cultures were grown over night at 37° C., 1000 rpm. Cells were harvested by centrifugation at 5000 g at 2° C. for 2 min and lysed with B-Per® protein extraction reagent (Thermo Fisher Scentific, Rockford, USA). After incubation for 60 min at 50° C., insoluble cell debris and was removed by centrifugation at 5000 g at 20° C. for 30 min. Supernatants containing variants of TaALDH were tested for relative activity under standard conditions: 2 mM NAD, 1 mM D-glyceraldehyde in 50 mM HEPES (pH 7) at 50° C. After 20 min NADH formation was detected spectrophotometrically at 340 nm.
(§3) The values “relative to wt” are the mU/mL values normalized to the wildtype control value.

[11] = Activity in solvents of Ta-ALDH variants (3 % isobutanol); type: biochemical
Protocol: as §2
Activity in solvents of Ta-ALDH variants was tested under standard assay conditions containing additional solvent. After 20 min NADH formation was detected and compared to relative activity.
as §3

[12] = Cofactor acceptance of Ta-ALDH variants (10 mM NAD); type: biochemical
Protocol: as §2
Change in cofactor acceptance of Ta-ALDH variants was tested under standard assay conditions but with 10 mM NAD. After 20 min NADH formation was detected and compared to relative activity.
as §3

[13] = Determination of specific activity of purified TaALDH variants; type: biochemical; conditions: purified enzyme, 1 mM D-Glyceraldehyde, 50° C., pH 7
Text: The Ta-aldh gene was cloned in pCBR-Chis expression vector as described above. Mutations F34L, F34M, Y399C, S405C and S405N were inserted into Ta-aldh gene by Quickchange PCR as described above. For recombinant expression, E. coli BL21 (DE3) was transformed with pCBR-Ta-aldh-Chis, pCBR-Ta-aldh-f34I-s405c-Chis, pCBR-Ta-aldh-f34m-s405n-Chis or pCBR-Ta-aldh-f34m-y399c-s405n-Chis. Each of the four variants was produced using the following protocol:
Large amounts of a TaALDH-Variant were produced with fed-batch fermentation in a 40 L Biostat Cplus bioreactor (Sartorius Stedim, Goettingen, Germany). Defined media was supplemented with 30 μg/ml kanamycin. After inoculation cells were grown at 30° C. for 24 h and induced with 0.3 mM IPTG. Enzyme expression was performed at 30° C. for 3 h. One fermentation produced 300 g cells (wet weight). Cells were harvested and lysed with Basic-Z Cell Disruptor (Constant Systems, Northants, UK) in loading buffer (200 mM NaCl; 20 mM Imidazol; 2.5 mM MgCl2; 50 mM NaPi, pH 6.2). After heat treatment at 50° C. for 30 min, cell debris and protein aggregates were separated from soluble fraction by centrifugation at 30,000 g at 20° C. for 30 min (Sorvall RC6+, SS-34 rotor, Thermo Scientific).
Soluble fraction of His-tagged TaALDH-Variant was further purified by Ni-NTA chromatography using ÄKTA UPC-900 FPLC-system (GE Healthcare, Freiburg, Germany). Supernatant was loaded on HiTrap FF-column and washed with two column volumes of loading buffer. Highly purified and concentrated TaALDH was fractioned after elution in imidazole buffer (200 mM NaCl; 500 mM imidazol; 50 mM NaPi, pH 6.2). Buffer was changed to 20 mM (NH4)HCO3 with HiPrep 26/10 Desalting column and TaALDH was lyophilized with an Alpha 2-4 LD Plus freeze dryer (Martin Christ GmbH, Osterode am Harz, Germany).
TaALDH activity was determined spectrophotometrically at 50° C. by measuring the rate of cofactor reduction at 340 nm in flat bottom microtiter plates (Grainer BioOne) with a Fluorostar Omega Photometer (BMG Labtech GmbH, Ortenberg, Germany). One unit of activity was defined as reduction of 1 μmol of cofactor per minute.

[14] = ALDH activity assay (glyceraldehyde to glycerate, NAD reduction); type: biochemical; conditions: natural substrate
Protocol: as §1
ALDH activity: ALDH activity was assayed at 50° C. by oxidizing D-glyceraldeyde to glycerate, whereby the coenzyme NAD is reduced to NADH. Assay mixture contained 50 mM HEPES (pH 7), 2.5 mM MgCl2, 2 mM NAD and 1 mM glyceraldehyde. (FEBS Lett. 2006, 580, 1198-1204)

[15] = Table 1, value with literature reference
[16] = Table 2, value with literature reference

B1: PDC: Pyruvate decarboxylase PDC (EC 4.1.1.1), Zymomonas mobilis, Seq ID 20 (protein)
chain: MSYTVGTYLAERLVQIGLKHHFAVAGDYNLVLLDNLLLNKNMEQVYCCNELNCGFSAEGYARAKGAAAAVVTYSVGALSAFDAIGGAYAENLPVILISGAPNNNDHAAGHVLHHALGKTDYHYQLEMAKNITAAAEAIYTPEEAPAKIDHVIKTALREKKPVYLEIACNIASMPCAAPGPASALFNDEASDEASLNAAVEETLKFIANRDKVAVLVGSKLRAAGAEEAAVKFADALGGAVATMAAAKSFFPEENPHYIGTSWGEVSYPGVEKTMKEADAVIALAPVFNDYSTTGWTDIPDPKKLVLAEPRSVVVNGIRFPSVHLKDYLTRLAQKVSKKTGALDFFKSLNAGELKKAAPADPSAPLVNAEIARQVEALLTPNTTVIAETGDSWFNAQRMKLPNGARVEYEMQWGHIGWSVPAAFGYAVGAPERRNILMVGDGSFQLTAQEVAQMVRLKLPVIIFLINNYGYTIEVMIHDGPYNNIKNWDYAGLMEVFNGNGGYDSGAGKGLKAKTGGELAEAIKVALANTDGPTLIECFIGREDCTEELVKWGKRVAAANSRKPVNKLLSGRPVLGSSHHHHHH
modifications: Pyruvate decarboxylase (EC 4.1.1.1), Zymomonas mobilis Protein sequence including C-terminal His-Tag
E50: Ethanol concentration which causes loss of 50% activity ([1]; 50° C.): 20 (50° C.) % v/v | I50: Isobutanol concentration which causes loss of 50% activity ([2]; 45° C.): 8 (45° C.) % v/v | Activity, 50° C. [3]: 64 U/mg | Half-life, 50° C. [4]: 22 h | thermostable up to (Thermal tolerance of PDC): up to 50 °C | T-Optimum ([5]; Table 1): 50 50 °C

B2: ADH: Alcohol dehydrogenase ADH (EC 1.1.1.1), Geobacillus stearothermophilus, Seq ID 18 (protein)
chain: MKAAVVEQFKEPLKIKEVEKPTISYGEVLVRIKACGVCHTDLHAAHGDWPVKPKLPLIPGHEGVGIVEEVGPGVTHLKVGDRVGIPWLYSACGHCDYCLSGQETLCEHQKNAGYSVDGGYAEYCRAAADYVVKIPDNLSFEEAAPIFCAGVTTYKALKVTGAKPGEWVAIYGIGGLGHVAVQYAKAMGLNVVAVDIGDEKLELAKELGADLVVNPLKEDAAKFMKEKVGGVHAAVVTAVSKPAFQSAYNSIRRGGACVLVGLPPEEMPIPIFDTVLNGIKIIGSIVGTRKDLQEALQFAAEGKVKTIIEVQPLEKINEVFDRMLKGQINGRVVLTLEDKLEHHHHHH
modifications: Alcohol dehydrogenase (EC 1.1.1.1), Geobacillus stearothermophilus Protein sequence including C-terminal His-Tag
E50: Ethanol concentration which causes loss of 50% activity ([1]; 50° C.): 25 (50° C.) % v/v | I50: Isobutanol concentration which causes loss of 50% activity ([2]; 50° C.): 5 (50° C.) % v/v | Activity, 50° C. (ADH for isobutyraldehyde) [6]: 83 U/mg | T-Optimum [7, 15]: >60^[3] 50 °C | T-Optimum [7, 16]: >60^[3] ° C. | Activity, 50° C. (ADH for acetaldehyde) [8]: 210 U/mg | Half-life, 50° C. [4]: >24 h

B3: GDH: Glucose dehydrogenase GDH (EC 1.1.1.47), Sulfolobus solfataricus, NP 344316.1, Seq ID 02 (protein)
chain: MKAIIVKPPNAGVQVKDVDEKKLDSYGKIKIRTIYNGICGTDREIVNGKLTLSTLPKGKDFLVLGHEAIGVVEESYHGFSQGDLVMPVNRRGCGICRNCLVGRPDFCETGEFGEAGIHKMDGFMREWWYDDPKYLVKIPKSIEDIGILAQPLADIEKSIEEILEVQKRVPVWTCDDGTLNCRKVLVVGTGPIGVLFTLLFRTYGLEVWMANRREPTEVEQTVIEETKTNYYNSSNGYDKLKDSVGKFDVIIDATGADVNILGNVIPLLGRNGVLGLFGFSTSGSVPLDYKTLQEIVHTNKTIIGLVNGQKPHFQQAVVHLASWKTLYPKAAKMLITKTVSINDEKELLKVLREKEHGEIKIRILWESGRPVLGSSHHHHHH
modifications: Glucose dehydrogenase (EC 1.1.1.47), Sulfolobus solfataricus Protein sequence including C-terminal His-Tag
E50: Ethanol concentration which causes loss of 50% activity ([1]; 45° C.): 30 (45° C.) % v/v | I50: Isobutanol concentration which causes loss of 50% activity ([2]; 45° C.): 9 (45° C.) % v/v | Activity, 50° C. [9]: 15 U/mg | T-Optimum ([5]; Table 1): 70 50 °C | T-Optimum ([5]; Table 2): 70 °C

B4: F34M Y399C S405N: Aldehyde Dehydrogenase ALDH (EC 1.2.1.3), Thermoplasma acidophilum, Mutations F34M+Y399C+S405N, Seq ID 10; the engineered ALDH of Tables 1 and 2 (protein)
chain: MDTKLYIDGQWVNSSSGKTVDKYSPVTGQVIGRMEAATRDDVDRAIDAAEDAFWAWNDLGSVERSKIIYRAKELIEKNRAELENIIMEENGKPVKEAKEEVDGVIDQIQYYAEWARKLNGEVVEGTSSHRKIFQYKVPYGIVVALTPWNFPAGMVARKLAPALLTGNTVVLKPSSDTPGSAEWIVRKFVEAGVPKGVLNFITGRGSEIGDYIVEHKKVNLITMTGSTATGQRIMQKASANMAKLILELGGKAPFMVWKDADMDNALKTLLWAKYWNAGQSCIAAERLYVHEDIYDTFMSRFVELSRKLALGDPKNADMGPLINKGALQATSEIVEEAKESGAKILFGGSQPSLSGPYRNGYFFLPTIIGNADQKSKIFQEEIFAPVIGARKISSVEEMCDLANDNKYGLASYLFTKDPNIIFEASERIRFGELYVNMPGPEASQGYHTGFRMTGQAGEGSKYGISEYLKLKNIYVDYSGKPLHINTVRDDLFQSGRPVLGSSHHHHHH
modifications: Aldehyde Dehydrogenase (EC 1.2.1.3), Thermoplasma acidophilum, variant F34M-Y399C-S405N Protein sequence including C-terminal His-Tag
E50: Ethanol concentration which causes loss of 50% activity ([1]; 60° C.): 13 (60° C.) % v/v | isobutanol concentration that already induces adverse effects on activity [2]: 3 % (v/v) | I50: Isobutanol concentration which causes loss of 50% activity ([2]; 50° C.): 3 (50° C.) % v/v | 2 mM NAD (mU/mL) ([10]; 1 mM D-glyceraldehyde, 50° C., pH 7, lysate supernatant): 130.81 mU/mL | relative to wt ([10]; mU/mL values normalized to the wildtype control value): 45.3 | T-Optimum [7, 15]: 63^[2] 50 °C | T-Optimum [7, 16]: 63^[2] ° C. | 3 % isobutanol, 2 mM NAD (mU/mL) ([11]; 3 % isobutanol, 2 mM NAD, 50° C., pH 7): 74.77 mU/mL | relative to wt ([11]; 3 % isobutanol, 2 mM NAD, normalized to the wildtype control value): 46.9 | Stab. rel to wt ([11]; stability in 3 % isobutanol relative to wildtype): 1 | 10 mM NAD (mU/mL) ([12]; 10 mM NAD, 1 mM D-glyceraldehyde, 50° C., pH 7): 396.91 mU/mL | relative to wt ([12]; 10 mM NAD, normalized to the wildtype control value): 33.3 | 10 mM NAD /2 mM NAD ([12]; ratio of activity at 10 mM NAD to 2 mM NAD): 0.7 | Half-life, 50° C. [4]: 12 h | specific activity (U/mg) at 2 mM NAD [13]: 1.2 U/mg | Activity, 50° C. [14]: 1 U/mg
